In publication PMC6797079:

B1: sodium/iodide symporter (NIS), wild type, cerulean- or citrine-tagged [human] / itself (parent)
chain: MEAVETGERPTFGAWDYGVFALMLLVSTGIGLWVGLARGGQRSAEDFFTGGRRLAALPVGLSLSASFMSAVQVLGVPSEAYRYGLKFLWMCLGQLLNSVLTALLFMPVFYRLGLTSTYEYLEMRFSRAVRLCGTLQYIVATMLYTGIVIYAPALILNQVTGLDIWASLLSTGIICTFYTAVGGMKAVVWTDVFQVVVMLSGFWVVLARGVMLVGGPRQVLTLAQNHSRINLMDFNPDPRSRYTFWTFVVGGTLVWLSMYGVNQAQVQRYVACRTEKQAKLALLINQVGLFLIVSSAACCGIVMFVFYTDCDPLLLGRISAPDQYMPLLVLDIFEDLPGVPGLFLACAYSGTLSTASTSINAMAAVTVEDLIKPRLRSLAPRKLVIISKGLSLIYGSACLTVAALSSLLGGGVLQGSFTVMGVISGPLLGAFILGMFLPACNTPGVLAGLGAGLALSLWVALGATLYPPSEQTMRVLPSSAARCVALSVNASGLLDPALLPANDSSRAPSSGMDASRPALADSFYAISYLYYGALGTLTTVLCGALISCLTGPTKRSTLAPGLLWWDLARQTASVAPKEEVAILDDNLVKGPEELPTGNKKPPGFLPTNEDRLFFLGQKELEGAGSWTPCVGHDGGRDQQETNL

Variants of: B1
Experiment: FRET
Settings: with itself, n = 2, minimum of 20 cells analyzed in each n, read off a plot

response (arbitrary units) (HeLa cells, parent: 20) | response (arbitrary units) (SW1736 cells, parent: 0) | Variant
0 | -70 | chain 1 D237A
120 | 30 | chain 1 A525F
